Source: patent US20240301068A1 (BEIJING HANMI PHARMACEUTICAL, published 2024)

Biological target: T1, recombinant human CD80 (Sino Biological Inc.) (human, UniProt P33681 35-242)
T1 sequence (looked up): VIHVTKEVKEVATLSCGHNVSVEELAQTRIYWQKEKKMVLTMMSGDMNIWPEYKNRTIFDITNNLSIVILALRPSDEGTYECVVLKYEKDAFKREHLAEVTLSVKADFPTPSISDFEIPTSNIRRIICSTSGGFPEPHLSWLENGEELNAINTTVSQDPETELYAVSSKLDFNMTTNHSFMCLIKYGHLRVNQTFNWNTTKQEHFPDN
Assay: ELISA, plate coated with 1 ug/mL recombinant human CD80 (printed B7-1), anti-human IgG-HRP, OD450; antibody concentration not shown
Description: The plate was washed 5 times with PBST, and then blocked using PBST with 1% BSA, 300 μL/well, and incubated at 25° C. for 1 hour, and then washed 5 times with PBST. […] The horseradish peroxidase-labeled anti-human IgG antibody (Chemicon, catalog number AP309P) diluted 1:10000 in PBST with 1% BSA was then added, 100 μL per well, and incubated at 25° C. for 1 hour. The plate was washed 5 times with PBST. The colorimetric substrate TMB was added, 100 μL/well, and developed at room temperature for 10 minutes. 1M H₂SO₄ was added, 100 μL/well, to stop the development. The absorbance at 450 nm was read on a microplate reader.

binding result: no binding
B1: chimeric anti-human PD-L1 monoclonal antibody (antibody, human IgG1, kappa, V domains shown)
VH: EVQLQQSGAELVKPGASVKLSCTASGFNIEDTYIHWVMQRPEQGLEWIGRIDPANGNTKYDPKFQGKATITADTSSNTAYLQLSSLTSEDTAVYYCGRGLGAWFAYWGQGTLVTVSA
VL: DIVMTQSHKVMSTSVGDRVTITCKASQDVHTAVAWIHQKPGQSPKLLIYSASNRYTGVPDRFTGSGSGTDFTFTISSVQAEDLAVYYCQQHYITPLTFGAGTTLELKR
notes: expressed in ExpiCHO cells; also called Chimeric mAb; Chimeric antibody
